Patent publication US20120165340

Target: FLAG-HA-PTEN (UniProt P60484)
Sequence (P60484 whole entry): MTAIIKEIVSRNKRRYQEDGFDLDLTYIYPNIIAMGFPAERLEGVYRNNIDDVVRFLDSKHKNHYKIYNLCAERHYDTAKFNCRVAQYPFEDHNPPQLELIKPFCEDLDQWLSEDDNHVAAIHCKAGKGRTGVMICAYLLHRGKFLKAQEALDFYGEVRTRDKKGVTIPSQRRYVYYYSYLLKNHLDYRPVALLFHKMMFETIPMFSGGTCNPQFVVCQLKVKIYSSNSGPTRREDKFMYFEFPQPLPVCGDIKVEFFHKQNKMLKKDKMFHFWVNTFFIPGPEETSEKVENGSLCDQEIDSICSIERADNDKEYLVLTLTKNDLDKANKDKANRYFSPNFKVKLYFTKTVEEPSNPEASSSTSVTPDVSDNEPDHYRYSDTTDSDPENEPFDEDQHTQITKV

c-src was tested, and the “tyrosine phosphorylation of PTEN (Western blot with 4G10 and anti-pY240, FIG. 15)” value was “although src and lyn both phosphorylate PTEN on tyrosine, the phosphorylation of Y240 is much greater in the presence of lyn than when src is expressed with PTEN” and the “tyrosine phosphorylation sites on PTEN identified by mass spectrometry” value was “We identified four sites of tyrosine phosphorylation in the PTEN phosphatase domain (Y46, Y68, Y155 and Y174) and two sites in the PTEN C2 domain (Y240 and Y315)”.
